Measurements taken from patent US20070248604A1 (Genentech, published 2007).

Legend:
hu FGF-19-His [1] = target: T1, hu FGF-19-His (human, UniProt O95750 25-216, limits assumed); assay: ELISA, FGF19-His captured on nickel plates, HRP anti-mouse IgG detection; ELISA binding EC50
T1 construct: Analyte in SPR; Construct limits and tag not described; not shown: His tag
Excerpt: (§1) Non-specific binding sites of HisGrab Nickel coated plates (Pierce) were saturated with PBS/3% BSA. […] The bound antibodies were detected using a HRP conjugated anti-mouse IgG (Jackson Immunoresearch) and the TMB peroxydase colorigenic substrate (KPL).

hu FGF-19-His [2] = target: T1, hu FGF-19-His; assay: solid phase antibody binding assay: FGF19-His captured on nickel coated plates, HRP anti-mouse IgG
Excerpt: as §1

hu FGF-19-His [3] = target: T1, hu FGF-19-His; assay: SPR, BIAcore-3000, antibody coupled to CM5 chip (~500 RU), FGF19-His injected 0.7-500 nM, 25 C, 1:1 Langmuir model
Procedure: Briefly, carboxymethylated dextran biosensor chips (CM5, BIAcore Inc.) were activated with N-ethyl-N′-(3-dimethylaminopropyl)-carbodiimide hydrochloride (EDC) and N-hydroxysuccinimide (NHS) according to the supplier's instructions. […] Next, 1M ethanolamine was injected to block unreacted groups. […] Association rates (kₒₙ) and dissociation rates (koff) were calculated using a simple one-to-one Langmuir binding model (BIAcore Evaluation Software version 3.2).

FGF19 protein [4] = target: T2, FGF19 protein (human, UniProt O95750 25-216, limits assumed); assay: solid phase receptor binding assay, blocking: FGF19 binding to captured FGFR4-Fc with antibody titrated
T2 construct: 125I-labelled for the Scatchard analysis. 'Human' is stated for hu FGF-19-His and for the anti-human FGF19 antibodies, not in these assay descriptions; also called Fibroblast growth factor 19; [125I]FGF19
Procedure: (§2) Maxisorb 96 well plates were coated overnight at 4° C. with 50 μl of 2 μg/ml anti-human immunoglobulin Fcγ fragment specific antibody (Jackson Immunoresearch) and used to capture 1 μg/ml FGFR-Fc chimeric proteins (R & D Systems).

FGF19 protein [5] = target: T2, FGF19 protein; assay: solid phase receptor binding assay: FGF19 binding to captured FGFR4-Fc with antibody present; solid phase receptor binding assay, blocking of FGF19 binding to FGFR4
Procedure: as §2

T1 sequence (O95750 25-216 limits assumed): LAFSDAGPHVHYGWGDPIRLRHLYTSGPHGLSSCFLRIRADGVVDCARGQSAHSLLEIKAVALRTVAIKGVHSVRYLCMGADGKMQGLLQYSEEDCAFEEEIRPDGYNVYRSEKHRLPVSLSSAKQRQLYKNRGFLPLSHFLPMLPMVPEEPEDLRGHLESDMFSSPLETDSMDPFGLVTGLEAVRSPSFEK
T2 sequence (O95750 25-216 limits assumed): as above

EC50 (hu FGF-19-His [1]): 0.04 nM | EC50 (read off the curve) (hu FGF-19-His [2]): ~0.03 µg/mL | Kd (hu FGF-19-His [3]): < 0.009 nM | IC50 (read off the curve) (FGF19 protein [4]): ~0.5 µg/mL | IC50 (FGF19 protein [5]): 3 nM
B1: mouse anti-human FGF19 monoclonal antibody 1A6 (antibody, V domains shown)
VH: QVQLKQSGPGLVQPSQSLSITCTVSGFSLTTYGVHWVRQSPGKGLEWLGVIWPGGGTDYNAAFISRLSITKDNSKSQVFFKMNSLLANDTAIYFCVRKEYANLYAMDYWGQGTLLTVSA
VL: DIKMTQSPSSMYASLGERVTIPCKASQDINSFLSWFQQKPGKSPKTLIYRANRLVDGVPSRFSGSGSGQDYSLTISSLEYEDMGIYYCLQYDEFPLTFGAGTKVEIKR
notes: Mouse hybridoma monoclonal antibody, purified from ascites on protein A-agarose; also called anti-FGF19 mab 1A6; anti-FGF19 Mab 1A6
